Data from US5453362, “Eukaryotic transcription protein; host cell factor” (Tularik Inc.).

Columns and labels:
[1] = target: GST-VP16 with insect extract, no Oct-1 POU (Herpes simplex virus, UniProt P06492 P06492:5-411); test: EMSA; no specific complex with SL2 or Sf9 extract without Oct-1 POU; conditions: tags: GST; label: 32P end
[2] = target: VP16-induced complex: Oct-1 POU domain + GST-VP16 + partially purified human HCF (Homo sapiens / Herpes simplex virus, UniProt P14859;P06492;P51610 P14859:280-438,P06492:5-411,P51610:2-2035); test: EMSA; 50 mM KCl, pH 7.9, 1 mM EDTA, 30 C; complex disrupted by anti-HCF sera (FIG. 4, WGA fraction); conditions: tags: GST on VP16; Oct-1 POU recombinant from E. coli, GST removed by thrombin; label: 32P end
Sequence of VP16-induced complex: Oct-1 POU domain + GST-VP16 + partially purified human HCF (P14859 280-438, chain 1 of 3): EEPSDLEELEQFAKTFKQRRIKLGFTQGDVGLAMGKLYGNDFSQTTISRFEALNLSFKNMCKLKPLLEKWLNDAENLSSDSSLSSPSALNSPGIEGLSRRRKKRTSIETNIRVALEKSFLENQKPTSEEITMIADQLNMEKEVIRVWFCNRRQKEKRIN
Sequence of VP16-induced complex: Oct-1 POU domain + GST-VP16 + partially purified human HCF (P06492 5-411, chain 2 of 3): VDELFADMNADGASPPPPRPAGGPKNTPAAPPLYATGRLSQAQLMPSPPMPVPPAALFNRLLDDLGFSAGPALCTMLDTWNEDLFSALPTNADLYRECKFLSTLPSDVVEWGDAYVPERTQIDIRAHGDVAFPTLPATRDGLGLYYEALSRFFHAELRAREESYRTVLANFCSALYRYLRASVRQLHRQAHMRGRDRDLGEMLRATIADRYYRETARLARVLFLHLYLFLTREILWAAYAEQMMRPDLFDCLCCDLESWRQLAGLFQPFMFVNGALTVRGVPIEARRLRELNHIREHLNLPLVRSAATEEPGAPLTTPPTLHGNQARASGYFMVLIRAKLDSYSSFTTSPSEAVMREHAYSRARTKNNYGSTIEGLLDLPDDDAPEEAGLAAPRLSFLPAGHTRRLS
Sequence of VP16-induced complex: Oct-1 POU domain + GST-VP16 + partially purified human HCF (P51610 2-2035, chain 3 of 3): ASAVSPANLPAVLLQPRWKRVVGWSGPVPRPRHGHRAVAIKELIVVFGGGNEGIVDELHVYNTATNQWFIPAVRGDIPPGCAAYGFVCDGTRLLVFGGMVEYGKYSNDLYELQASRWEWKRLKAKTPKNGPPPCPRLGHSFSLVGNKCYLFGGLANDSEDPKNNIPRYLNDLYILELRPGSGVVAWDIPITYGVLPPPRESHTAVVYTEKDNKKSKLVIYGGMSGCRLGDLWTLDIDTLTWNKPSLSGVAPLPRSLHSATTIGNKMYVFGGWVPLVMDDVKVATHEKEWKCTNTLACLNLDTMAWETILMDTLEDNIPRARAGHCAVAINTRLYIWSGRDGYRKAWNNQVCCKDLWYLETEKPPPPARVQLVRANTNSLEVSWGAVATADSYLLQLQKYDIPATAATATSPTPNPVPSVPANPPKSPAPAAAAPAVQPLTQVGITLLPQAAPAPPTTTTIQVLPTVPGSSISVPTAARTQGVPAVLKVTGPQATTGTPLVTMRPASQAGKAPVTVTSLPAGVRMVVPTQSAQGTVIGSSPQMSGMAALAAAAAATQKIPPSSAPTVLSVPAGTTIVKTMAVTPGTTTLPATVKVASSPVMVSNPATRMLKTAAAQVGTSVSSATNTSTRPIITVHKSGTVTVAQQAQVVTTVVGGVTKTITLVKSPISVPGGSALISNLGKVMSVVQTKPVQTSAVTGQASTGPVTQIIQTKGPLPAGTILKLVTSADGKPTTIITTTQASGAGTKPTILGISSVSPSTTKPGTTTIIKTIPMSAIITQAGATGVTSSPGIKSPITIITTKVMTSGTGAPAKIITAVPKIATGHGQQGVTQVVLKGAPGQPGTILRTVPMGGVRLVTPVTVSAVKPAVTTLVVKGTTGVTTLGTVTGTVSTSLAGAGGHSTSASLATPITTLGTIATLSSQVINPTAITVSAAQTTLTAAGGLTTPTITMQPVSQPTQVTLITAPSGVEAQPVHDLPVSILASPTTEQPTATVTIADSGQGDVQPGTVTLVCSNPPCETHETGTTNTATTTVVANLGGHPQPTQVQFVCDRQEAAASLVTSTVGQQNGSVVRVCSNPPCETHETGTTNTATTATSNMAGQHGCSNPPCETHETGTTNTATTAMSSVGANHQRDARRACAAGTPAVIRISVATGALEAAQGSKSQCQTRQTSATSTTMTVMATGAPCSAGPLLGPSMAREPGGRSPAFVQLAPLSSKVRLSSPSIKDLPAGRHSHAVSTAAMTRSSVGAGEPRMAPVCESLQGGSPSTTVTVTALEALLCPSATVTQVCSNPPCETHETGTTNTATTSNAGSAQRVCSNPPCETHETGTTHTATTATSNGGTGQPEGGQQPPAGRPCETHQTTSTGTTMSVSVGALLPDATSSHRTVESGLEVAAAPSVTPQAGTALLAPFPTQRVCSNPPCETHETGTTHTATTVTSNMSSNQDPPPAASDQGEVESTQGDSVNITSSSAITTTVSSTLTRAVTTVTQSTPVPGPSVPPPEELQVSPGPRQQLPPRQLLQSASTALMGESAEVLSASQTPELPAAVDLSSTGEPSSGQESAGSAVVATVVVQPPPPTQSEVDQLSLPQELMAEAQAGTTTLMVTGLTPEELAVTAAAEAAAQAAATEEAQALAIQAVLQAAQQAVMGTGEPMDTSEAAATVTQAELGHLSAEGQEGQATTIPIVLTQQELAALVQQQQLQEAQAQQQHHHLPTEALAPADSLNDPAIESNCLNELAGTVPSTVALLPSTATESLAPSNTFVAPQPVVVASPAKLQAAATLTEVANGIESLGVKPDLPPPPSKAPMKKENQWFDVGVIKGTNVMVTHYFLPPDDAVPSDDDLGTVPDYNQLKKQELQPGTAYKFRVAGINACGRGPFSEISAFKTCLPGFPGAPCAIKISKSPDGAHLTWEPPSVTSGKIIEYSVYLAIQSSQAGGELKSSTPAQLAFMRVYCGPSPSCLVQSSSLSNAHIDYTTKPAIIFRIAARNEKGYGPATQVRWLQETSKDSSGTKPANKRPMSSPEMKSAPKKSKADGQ

Sequence of GST-VP16 with insect extract, no Oct-1 POU (P06492 5-411, one chain of several): as the sequence (P06492 5-411, chain 2 of 3) above

B1: (Octa+)… ICP0 IE element (dsDNA)
DNA 1: ATGCTAATGATAT
DNA 2: ATATCATTAGCAT
**Q.** Does B1 bind [1]?
**A.** no binding

**Q.** Does B1 bind [2]?
**A.** binds
